Drawing on PMC9330529, this text covers Kd and binding signal (% spike still bound to hACE2) for four sequences.

Where two headings read alike, the source gives them in different places.

Series [1] has as its target SARS-CoV-2 spike protein WT (SARS-CoV-2 (WT)) (UniProt P0DTC2).
The target is the same in series [2]. Briefly: competition ELISA.
Series [3] has the same target. This is another data set of the same source.
Series [4] shares this target. The source holds these as a separate data set.

Turning to “CGCAGCACCCAAGAACAAGGACTGCTTAGGATTGCGATAGGTTCGGAAAAAAGGCGGGTTCCTAGACTTGTACTCAGCCT [S1B6C3-A5-S2A2C1]”, the dissociation constant (Kd) in series [1] amounted to 35.8 nM; in series [3] it was 34.6 nM. Moreover, the binding signal (% spike still bound to hACE2) in series [2] came to 8. “AGGCGGGTTCCTAGACTTGTACTCAGCCTTTTTTTTTTTTTTTTCGCAGCACCCAAGAACAAGGACTGCTTAGGATTGCGATAGGTTCGG [S2A2C1-T15-S1B6C3]” came in with a Kd in series [4] of 61.4 nM. “CGCAGCACCCAAGAACAAGGACTGCTTAGGATTGCGATAGGTTCGGTTTTTTTTTTTTTTTAGGCGGGTTCCTAGACTTGTACTCAGCCT [S1B6C3-T15-S2A2C1]” yielded a Kd in series [4] of 46.1 nM. Moreover, in series [2], the binding signal (% spike still bound to hACE2) worked out at 24. “CGCAGCACCCAAGAACAAGGACTGCTTAGGATTGCGATAGGTTCGGAAAAAAAAAAAAAAAAGGCGGGTTCCTAGACTTGTACTCAGCCT [S1B6C3-A15-S2A2C1]”: the binding signal (% spike still bound to hACE2) in series [2] was found to be 12.
